Experimental data: the supplement of paper PMC7125110
± gives the standard error. Fewer inactive variants are shown than the library holds.

B1: glmS ribozyme (parent)
chain: AUAAAAGCGCCAGAACUACAGAAAUGUAGUUGACGAGGAGGAGGUUUAUCGAAUUUUCGGCGGAUGCCUCCAAA

Tests used:
Details in all cases: with glucosamine-6-phosphate
glucosamine-6-phosphate [1] = variants of: B1; assay: self-cleavage kobs at 40 uM GlcN6P; higher = faster cleavage; RNA array
Method in brief: (§1)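 Glucosamine-6-phosphate, from 40 μM to 10 mM in HEPES/KCl/Mg(OAc)2 buffer, was flowed over sequenced MiSeq chips carrying barcoded ribozyme variants transcribed in situ by E. coli RNA polymerase. A hybridised Cy3 probe tracked the variants at 37 °C as tiles were imaged over ~14 h. kobs, kcat and KM were obtained by fitting normalised per-tile medians to exponential decays and then applying weighted Michaelis–Menten fits across concentrations.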

glucosamine-6-phosphate [2] = variants of: B1; assay: self-cleavage kobs at 640 uM GlcN6P; higher = faster cleavage; RNA array
Method in brief: as §1

glucosamine-6-phosphate [3] = variants of: B1; assay: self-cleavage kobs at 10000 uM GlcN6P; higher = faster cleavage; RNA array
Method in brief: as §1

glucosamine-6-phosphate [4] = variants of: B1; assay: self-cleavage kobs at 2500 uM GlcN6P; higher = faster cleavage; RNA array
Method in brief: as §1

glucosamine-6-phosphate [5] = variants of: B1; assay: self-cleavage kobs at 160 uM GlcN6P; higher = faster cleavage; RNA array
Method in brief: as §1

Variant | self-cleavage kobs at 40 uM GlcN6P (glucosamine-6-phosphate [1]) [s⁻¹] | self-cleavage kobs at 640 uM GlcN6P (glucosamine-6-phosphate [2]) [s⁻¹] | self-cleavage kobs at 10000 uM GlcN6P (glucosamine-6-phosphate [3]) [s⁻¹] | self-cleavage kobs at 2500 uM GlcN6P (glucosamine-6-phosphate [4]) [s⁻¹] | self-cleavage kobs at 160 uM GlcN6P (glucosamine-6-phosphate [5]) [s⁻¹]
A33G U65C C71A | < 1e-05 | < 1e-05 |  |  | 
U30G A48G C71U | < 1e-05 | < 1e-05 |  |  | 
U30A A42U U55C | < 1e-05 |  |  |  | 
A33U A36C G59C | < 1e-05 |  | < 1e-05 |  | 
U31G G66A | 0.000146 ± 2.4e-05 | 0.0011 ± 0.00039 | 0.00839 ± 0.0014 | 0.00151 ± 0.00042 | 
U31A C50G C58A | 5.39e-05 ± 1.9e-05 | 0.00134 ± 0.00032 |  | 0.000414 ± 0.00012 | 
U30A U55A C61A | < 1e-05 |  |  | < 1e-05 | 
G32C G43U U47C | < 1e-05 |  |  |  | 
G32U G44U U45A | < 1e-05 |  |  |  | 
A33C U55C U57C | < 1e-05 |  | < 1e-05 |  | 
G32U G35U | < 1e-05 | < 1e-05 | < 1e-05 | < 1e-05 | < 1e-05
U31C A39G C50U U54G C58A G60C G62U | < 1e-05 |  | < 1e-05 |  | 
A33U G40C C71A | < 1e-05 |  |  |  | 
G32U G38C U55A | < 1e-05 | < 1e-05 | < 1e-05 |  | 
U31A G43C U54G | < 1e-05 |  | < 1e-05 |  | 
A33G A64U | < 1e-05 |  | < 1e-05 |  | 
A33C G37C | < 1e-05 | < 1e-05 |  | < 1e-05 | 
G32C G44C | < 1e-05 |  | < 1e-05 | < 1e-05 | < 1e-05
U30G G44U | < 1e-05 |  | 4.23e-05 ± 1.3e-05 |  | < 1e-05
A33G A36G A39C U45A | < 1e-05 |  | < 1e-05 | < 1e-05 | < 1e-05
U31G U57G | < 1e-05 |  |  |  | 
A33G G40U G43A U49A C58U | < 1e-05 |  | < 1e-05 |  | 
A33C G63U C67U | < 1e-05 |  |  |  | 
G32C U56C | < 1e-05 | < 1e-05 |  |  | < 1e-05

Variant | self-cleavage kobs at 40 uM GlcN6P (glucosamine-6-phosphate [1]) [s⁻¹] | self-cleavage kobs at 640 uM GlcN6P (glucosamine-6-phosphate [2]) [s⁻¹] | self-cleavage kobs at 10000 uM GlcN6P (glucosamine-6-phosphate [3]) [s⁻¹] | self-cleavage kobs at 2500 uM GlcN6P (glucosamine-6-phosphate [4]) [s⁻¹] | self-cleavage kobs at 160 uM GlcN6P (glucosamine-6-phosphate [5]) [s⁻¹]
U30A C34U C68G | 0.000169 ± 6.6e-05 | 0.000629 ± 0.00024 | 0.000202 ± 6.3e-05 |  | 
U31G A39G | 0.0004 ± 6e-05 | 0.00522 ± 0.0013 |  | 0.0142 ± 0.0046 | 0.00122 ± 0.00027
A33C G59C | < 1e-05 | < 1e-05 | < 1e-05 | < 1e-05 | < 1e-05
G32C U45C C58G G59U | < 1e-05 |  |  |  | 
A33C G62C | < 1e-05 | < 1e-05 | < 1e-05 | < 1e-05 | 
U31C A39U U54C C71U | 5.15e-05 ± 1.1e-05 |  | 0.00213 ± 0.00023 | 0.000671 ± 0.00024 | 
U31A C61U | < 1e-05 | < 1e-05 |  |  | < 1e-05
U30G A36G | < 1e-05 | < 1e-05 | < 1e-05 | < 1e-05 | < 1e-05
U30A U54G | 0.000119 ± 2.1e-05 |  | 0.00479 ± 0.00078 |  | 
U31C A48G | < 1e-05 |  |  |  | < 1e-05
A33U A42C U47G U54A | < 1e-05 | < 1e-05 | < 1e-05 | < 1e-05 | 
G32U G62U | < 1e-05 | < 1e-05 | < 1e-05 | < 1e-05 | < 1e-05
A33U G43U | < 1e-05 |  | < 1e-05 | < 1e-05 | < 1e-05
G32A G37A C50G C67U | 6.41e-05 ± 2.1e-05 |  |  |  | 
A33G C61U | < 1e-05 |  | < 1e-05 |  | 
A33G C61G | < 1e-05 | < 1e-05 | < 1e-05 |  | < 1e-05
U31G U49G C50G | < 1e-05 |  |  |  | 
A33U A64U | < 1e-05 | < 1e-05 | < 1e-05 |  | 
G32U A36U U46G A48U U56C G60U C61U | < 1e-05 | < 1e-05 | < 1e-05 |  | 
A33U A48G A53U U57C | < 1e-05 |  | < 1e-05 |  | 
U31A U65C U69C | < 1e-05 |  |  |  | 
U31G G43A C61A C68A | < 1e-05 | < 1e-05 |  | < 1e-05 | < 1e-05
U30A C50G | 3.17e-05 ± 1.5e-05 | 0.00128 ± 0.0005 |  | 6.93e-05 ± 1.6e-05 | 6.28e-05 ± 1.6e-05
